The record followed here is patent US10428140B2, “Anti-EphA4 antibody” (EISAI R&D MANAGEMENT CO., LTD., priority 2015, dated 2019).

As a reminder, the Kd is the equilibrium constant for the complex coming apart. High values mean a looser complex, low ones a tighter complex.

B1: 134 (antibody, V domains shown)
VH: QVQLVQSGSELKKPGASVKVSCKASGYTFTDYSMHWVRQAPGQGLKWMGWINTETGEPTYAQGFTGRFVFSLDTSVSTAYLQISSLKAEDTAVYYCARIPLYYYGSRYWYFDVWGQGTTVTVSS
VL: EIVMTQSPATLSVSPGERATLSCRASENIYRNLAWYQQKPGQSPRLLIYAATNLADGIPARFSGSGSGTEYTLTISSLQSEDFAVYYCQHFWGTPWTFGQGTKVEIK
modifications: synthetic humanized antibody heavy chain variable region sequence; synthetic humanized antibody light chain variable region sequence
B2: 135 (antibody, V domains shown)
VH: B1 VH with K46E, Q62D, G63D, T65K
VL: B1 VL
modifications: synthetic humanized antibody heavy chain variable region sequence; synthetic humanized antibody light chain variable region sequence
B3: 75 (antibody)
VH: B1 VH with K46E
VL: DIQMTQSPSSLSASVGDRVTITCRASENIYRNLAWYQQKPGKAPKLLVYAATNLADGVPSRFSGSGSGTDYTLTISSLQPEDFATYYCQHFWGTPWTFGQGTKVEIK
chain: ASTKGPSVFPLAPSSKSTSGGTAALGCLVKDYFPEPVTVSWNSGALTSGVHTFPAVLQSSGLYSLSSVVTVPSSSLGTQTYICNVNHKPSNTKVDKRVEPKSCDKTHTCPPCPAPPAAAPSVFLFPPKPKDTLMISRTPEVTCVVVDVSHEDPEVQFNWYVDGVEVHNAKTKPREEQFNSTFRVVSVLTVVHQDWLNGKEYKCKVSNKGLPAPIEKTISKTKGQPREPQVYTLPPSREEMTKNQVSLTCLVKGFYPSDIAVEWESNGQPENNYKTTPPMLDSDGSFFLYSKLTVDKSRWQQGNVFSCSVMHEALHNHYTQKSLSLSPG
modifications: synthetic humanized antibody heavy chain variable region sequence; synthetic humanized antibody light chain variable region sequence; synthetic antibody constant region sequence
B4: 132 (antibody, V domains shown)
VH: B1 VH with V2I
VL: B1 VL
modifications: synthetic humanized antibody heavy chain variable region sequence; synthetic humanized antibody light chain variable region sequence

Positions count from the first letter of the chain named.

T1 sequence (P54764 20-547): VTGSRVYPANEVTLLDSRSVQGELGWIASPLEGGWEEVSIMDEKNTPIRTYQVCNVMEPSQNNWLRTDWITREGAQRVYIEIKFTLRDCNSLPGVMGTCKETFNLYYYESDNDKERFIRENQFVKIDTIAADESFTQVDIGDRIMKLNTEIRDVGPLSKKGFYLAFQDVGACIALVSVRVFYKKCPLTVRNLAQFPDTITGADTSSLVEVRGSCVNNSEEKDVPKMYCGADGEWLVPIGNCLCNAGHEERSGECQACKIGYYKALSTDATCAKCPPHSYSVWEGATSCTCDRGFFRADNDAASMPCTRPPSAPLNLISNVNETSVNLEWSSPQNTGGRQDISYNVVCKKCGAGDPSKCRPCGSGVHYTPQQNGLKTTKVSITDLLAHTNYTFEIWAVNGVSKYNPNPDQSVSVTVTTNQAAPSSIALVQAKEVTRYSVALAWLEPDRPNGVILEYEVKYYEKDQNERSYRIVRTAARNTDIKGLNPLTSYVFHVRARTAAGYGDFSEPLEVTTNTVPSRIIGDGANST

One assay addresses T1, human EphA4 (Homo sapiens, UniProt P54764).
T1 construct: made in house; not restated for the human SEAP-His protein
The experiment in a line: Affinity of humanized antibodies by SPR (Biacore T200). The class given is binding. The following applies: human EphA4 extracellular region-SEAP-His; 1:1 binding model. An outline of the steps:
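Humanized antibodies captured on protein A chip (antibody A via immobilized rat anti-mouse IgG1) at about 30 to 60 RU in HBS-EP; human EphA4 extracellular region-SEAP-His injected single-cycle at 0.6 to 50 nM, 120 s association, 900 s dissociation. KD = kd/ka from 1:1 binding fits.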
Background: SPR reads the build-up and loss of mass on a sensor chip optically.
In the case of B1, the ka turned out to be 280000 M⁻¹ s⁻¹ and the kd turned out to be 0.00032 s⁻¹.
The matching figures for B2: 320000 M⁻¹ s⁻¹ and 0.0004 s⁻¹.
For B3 the same measures were 380000 M⁻¹ s⁻¹ and 0.00042 s⁻¹.
B4 came in with a ka of 270000 M⁻¹ s⁻¹ and a kd of 0.00031 s⁻¹.

The same assay, now with this note: human EphA4 extracellular region-SEAP-His; KD=kd/ka.
For the molecule B1, the dissociation constant (Kd) came to 1.2 nM. This lies in the single-digit nanomolar range.
Same read-out and setting: then B2, with 1.3 nM; and B3, with 1.2 nM.
As for B4, the Kd worked out at 1.2 nM.

In another assay the target is T2, human EphA1 (Homo sapiens, UniProt P21709).
T2 construct: a protein of the extracellular region of each human Eph receptor fused with the SEAP protein and the His tag; made in house; host or cells: Expi293F cells (culture supernatant)
T2 sequence (P21709 26-547 limits assumed): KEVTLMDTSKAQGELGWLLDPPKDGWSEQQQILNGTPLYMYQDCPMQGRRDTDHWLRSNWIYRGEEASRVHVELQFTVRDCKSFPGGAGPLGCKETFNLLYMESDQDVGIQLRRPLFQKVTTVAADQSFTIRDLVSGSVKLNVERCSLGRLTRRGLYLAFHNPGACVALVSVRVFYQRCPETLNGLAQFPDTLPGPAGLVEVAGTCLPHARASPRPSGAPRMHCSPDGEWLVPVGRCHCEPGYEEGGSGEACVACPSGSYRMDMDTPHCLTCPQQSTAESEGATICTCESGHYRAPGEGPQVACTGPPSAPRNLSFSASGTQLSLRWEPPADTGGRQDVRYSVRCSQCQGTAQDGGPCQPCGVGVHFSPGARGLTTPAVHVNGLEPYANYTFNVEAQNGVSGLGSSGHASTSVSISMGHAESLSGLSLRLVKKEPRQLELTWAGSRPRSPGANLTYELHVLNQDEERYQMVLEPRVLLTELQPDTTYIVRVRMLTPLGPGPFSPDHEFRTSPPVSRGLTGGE
The experiment in a line: Selectivity ELISA of humanized antibodies for human Eph receptor. The following applies: coated protein 1 nM. The class given is binding. An outline of the steps: (§1)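 Steps: coat anti-His antibody; block, then 1% BlockAce overnight at 4 °C; add Eph receptor extracellular region-SEAP-His (1 nM final) 1 h; add humanized antibody 1 h; add HRP anti-IgG 1 h; develop TMB; stop with acid; read 450 nm.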
Regarding B1, the “hEphA1-SEAP-: absorbance at 450 nm, percentage with respect to hEphA4-SEAP-His as 100%” value is 5.1%.
B2: the “hEphA1-SEAP-: absorbance at 450 nm, percentage with respect to hEphA4-SEAP-His as 100%” value amounted to 5.2%.
On the same count and under the same terms, then B3, with 4.7%.
On the same count and under the same terms, as for B4, the figure is 4.8%.

The target in the next assay is T1, human EphA4. The description is as above. Particulars: coated protein 1 nM; reference set to 100%. Format: binding. In a few lines:
as §1
As to B1, the “hEphA4-SEAP-: absorbance at 450 nm, percentage with respect to hEphA4-SEAP-His as 100%” value is given as 100%.
Same read-out and setting: then B2, with 100%; and B3, with 100%.
Still for that read-out and setting: as for B4, the figure is 100%.
